For one substance, maximal pause stimulation k0/kNusA, his pause, scaffold results are on record in article PMC3682478.

The test deals with E. coli RNA polymerase in elongating complexes and paused transcription complexes (transcription assays) (E. coli) (UniProt P0A7Z4).
E. coli RNA polymerase in elongating complexes and paused transcription complexes (transcription assays) (E. coli), sequence (P0A7Z4 whole entry, chain 1 of 3): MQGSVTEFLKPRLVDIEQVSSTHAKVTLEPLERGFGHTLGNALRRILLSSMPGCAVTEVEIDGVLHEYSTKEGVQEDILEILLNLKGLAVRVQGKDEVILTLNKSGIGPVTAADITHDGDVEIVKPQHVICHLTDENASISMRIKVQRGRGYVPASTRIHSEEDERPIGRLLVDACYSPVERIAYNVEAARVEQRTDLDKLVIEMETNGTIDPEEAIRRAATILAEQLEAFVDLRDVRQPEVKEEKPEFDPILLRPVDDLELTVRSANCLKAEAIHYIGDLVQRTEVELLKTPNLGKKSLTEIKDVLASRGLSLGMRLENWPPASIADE
E. coli RNA polymerase in elongating complexes and paused transcription complexes (transcription assays) (E. coli), sequence (P0A8V2 whole entry, chain 2 of 3, further chain): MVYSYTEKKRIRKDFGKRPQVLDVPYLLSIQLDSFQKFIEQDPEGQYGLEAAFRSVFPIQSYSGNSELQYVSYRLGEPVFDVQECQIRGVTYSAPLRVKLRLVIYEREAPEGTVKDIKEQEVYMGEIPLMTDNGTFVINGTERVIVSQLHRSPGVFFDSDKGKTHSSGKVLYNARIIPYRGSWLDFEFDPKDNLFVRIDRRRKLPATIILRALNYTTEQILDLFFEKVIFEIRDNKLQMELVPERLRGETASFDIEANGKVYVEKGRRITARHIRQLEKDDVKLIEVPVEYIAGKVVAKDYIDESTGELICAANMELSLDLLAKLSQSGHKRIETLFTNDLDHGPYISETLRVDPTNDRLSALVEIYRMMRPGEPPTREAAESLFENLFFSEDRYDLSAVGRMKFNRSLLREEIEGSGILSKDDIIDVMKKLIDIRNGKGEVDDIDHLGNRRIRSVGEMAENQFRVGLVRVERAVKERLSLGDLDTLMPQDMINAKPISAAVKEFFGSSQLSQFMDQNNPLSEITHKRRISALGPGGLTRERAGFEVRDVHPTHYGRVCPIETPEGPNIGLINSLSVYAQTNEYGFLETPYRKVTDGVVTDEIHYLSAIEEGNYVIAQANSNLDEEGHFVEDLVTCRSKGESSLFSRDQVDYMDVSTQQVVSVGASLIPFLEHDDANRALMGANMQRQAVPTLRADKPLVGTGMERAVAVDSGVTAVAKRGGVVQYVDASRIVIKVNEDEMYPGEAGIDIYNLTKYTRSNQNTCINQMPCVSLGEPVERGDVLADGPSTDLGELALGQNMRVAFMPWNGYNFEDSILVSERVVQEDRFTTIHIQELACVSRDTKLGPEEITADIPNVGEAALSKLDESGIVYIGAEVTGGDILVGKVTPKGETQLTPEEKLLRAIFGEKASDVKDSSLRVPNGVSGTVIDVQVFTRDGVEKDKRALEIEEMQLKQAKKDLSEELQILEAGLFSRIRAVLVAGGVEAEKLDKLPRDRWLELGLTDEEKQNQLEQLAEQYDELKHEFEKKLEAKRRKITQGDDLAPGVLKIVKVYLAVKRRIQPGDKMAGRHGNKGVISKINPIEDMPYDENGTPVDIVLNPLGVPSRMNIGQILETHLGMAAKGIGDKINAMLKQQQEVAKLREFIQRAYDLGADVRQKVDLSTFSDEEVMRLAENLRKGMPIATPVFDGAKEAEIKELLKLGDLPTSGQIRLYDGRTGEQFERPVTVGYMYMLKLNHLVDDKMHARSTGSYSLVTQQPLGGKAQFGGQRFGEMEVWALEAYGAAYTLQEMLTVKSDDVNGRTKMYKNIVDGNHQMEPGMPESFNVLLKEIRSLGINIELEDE
E. coli RNA polymerase in elongating complexes and paused transcription complexes (transcription assays) (E. coli), sequence (P0A8T7 whole entry, chain 3 of 3, further chain): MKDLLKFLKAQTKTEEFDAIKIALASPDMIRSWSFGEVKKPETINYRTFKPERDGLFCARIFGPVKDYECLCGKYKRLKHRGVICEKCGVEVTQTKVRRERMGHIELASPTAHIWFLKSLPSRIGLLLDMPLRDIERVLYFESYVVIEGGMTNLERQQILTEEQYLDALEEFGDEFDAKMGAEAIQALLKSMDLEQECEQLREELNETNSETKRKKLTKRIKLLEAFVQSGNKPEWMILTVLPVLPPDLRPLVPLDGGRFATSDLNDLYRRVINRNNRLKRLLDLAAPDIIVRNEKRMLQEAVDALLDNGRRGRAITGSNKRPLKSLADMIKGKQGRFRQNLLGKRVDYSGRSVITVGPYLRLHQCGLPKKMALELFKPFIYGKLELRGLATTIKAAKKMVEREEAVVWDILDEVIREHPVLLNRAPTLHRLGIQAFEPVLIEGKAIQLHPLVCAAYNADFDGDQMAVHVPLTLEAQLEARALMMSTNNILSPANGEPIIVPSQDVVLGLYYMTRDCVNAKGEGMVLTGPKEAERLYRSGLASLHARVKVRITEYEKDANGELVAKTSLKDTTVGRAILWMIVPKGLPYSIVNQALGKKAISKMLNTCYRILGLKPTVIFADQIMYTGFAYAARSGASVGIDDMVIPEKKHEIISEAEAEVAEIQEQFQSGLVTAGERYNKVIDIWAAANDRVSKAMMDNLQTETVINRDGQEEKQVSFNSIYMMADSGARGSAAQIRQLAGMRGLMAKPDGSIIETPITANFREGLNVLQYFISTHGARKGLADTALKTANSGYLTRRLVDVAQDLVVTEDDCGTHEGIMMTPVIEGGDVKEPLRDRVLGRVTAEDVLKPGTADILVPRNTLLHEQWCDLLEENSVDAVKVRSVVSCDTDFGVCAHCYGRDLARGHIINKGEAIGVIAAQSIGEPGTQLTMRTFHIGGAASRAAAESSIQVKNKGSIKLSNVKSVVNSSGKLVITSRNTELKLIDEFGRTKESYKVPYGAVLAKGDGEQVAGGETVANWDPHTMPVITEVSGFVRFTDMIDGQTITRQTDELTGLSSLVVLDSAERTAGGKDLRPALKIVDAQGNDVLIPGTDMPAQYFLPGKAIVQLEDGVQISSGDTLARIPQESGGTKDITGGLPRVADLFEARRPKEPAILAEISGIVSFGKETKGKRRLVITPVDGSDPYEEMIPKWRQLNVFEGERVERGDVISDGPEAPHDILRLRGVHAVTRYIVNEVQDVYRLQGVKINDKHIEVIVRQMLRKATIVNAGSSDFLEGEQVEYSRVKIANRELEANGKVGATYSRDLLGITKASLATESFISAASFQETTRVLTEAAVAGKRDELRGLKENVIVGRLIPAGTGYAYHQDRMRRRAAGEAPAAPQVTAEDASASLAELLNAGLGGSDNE

For “NusA NTD with N-terminal deletion, Δ(3-18) NTD (from UniProt P0AFF6 1-137) (domain or fragment)”, the maximal pause stimulation k0/kNusA, his pause, scaffold was 1.27.
